Reference: patent US20060078911, “Oxidative DNA damage protection” (published 2006)

Experiments:
[1] = target: PC4 (full length wild type) (Homo sapiens, UniProt P53999 SEQ:1-127); assay: EMSA; complete binding at 352 nM PC4 without XPG; second shifted band at 704 nM; 2.5 nM DNA, 110 mM KCl, 1 mM EDTA, poly(dI-dC), pH 7.5, room temp; with XPG (41 nM) present complete binding at 44 nM; conditions: tags: expressed in E. coli BL21(DE3); chain copies: 2 (inferred); label: 5'-32P on 10T-strand; duplex with central 10-nt unpaired bubble
Method: (§1) 2.5 nM of the 10-nt bubble DNA substrate was incubated with 41 nM of purified XPG (lanes 2-7) or without XPG (lanes 9-13). Reaction mixtures were supplemented with 44 nM (lanes 3 and 9), 88 nM (lanes 4 and 10), 176 nM (lanes 5 and 11), 352 nM (lanes 6 and 12) and 704 nM (lanes 7 and 13) of human PC4 protein, respectively. Samples were loaded onto a 4.5% native gel and electrophoresis was conducted at 150 V for 2 hours at 4° C. The gel was dried and exposed on a phosphorimager screen. No protein was added in lanes 1 and 8.
(§2) The 10T-strand was 5′-end labeled with T4 polynucleotide kinase and [γ-³²P]ATP and annealed with the complementary 10C-strand by heating for 3 minutes at 90° C. and cooled to room temperature. […] The gels were visualized by phosphorimager and analyzed using ImageQuant™ software (Molecular Dynamics).
(§3) To determine if XPG affects PC4 interaction with DNA bubbles, we pre-incubated the 10 bp bubble DNA with XPG and then added PC4 at varying concentrations (FIG. 9A, lanes 3-7). XPG strongly stimulated PC4 binding, with complete binding achieved at the lowest PC4 protein concentration analyzed (44 nM, lane 3) as compared to 352 nM in the absence of XPG Correspondingly, the tetramer-bound complex appears at lower concentrations (352 nM, lane 6) in the presence of XPG In no case did we observe a trimeric complex of XPG, PC4, and DNA. […]

XPG = target: T1, XPG (Homo sapiens, UniProt P28715 P28715:1-1186); assay: EMSA; 41 nM XPG gives slowly migrating complex; displaced by PC4; 110 mM KCl, 1 mM EDTA, pH 7.5, room temp; conditions: tags: expressed in High5 insect cells (pFASTBAC); label: 5'-32P on 10T-strand; duplex with central 10-nt unpaired bubble
T1 sequence: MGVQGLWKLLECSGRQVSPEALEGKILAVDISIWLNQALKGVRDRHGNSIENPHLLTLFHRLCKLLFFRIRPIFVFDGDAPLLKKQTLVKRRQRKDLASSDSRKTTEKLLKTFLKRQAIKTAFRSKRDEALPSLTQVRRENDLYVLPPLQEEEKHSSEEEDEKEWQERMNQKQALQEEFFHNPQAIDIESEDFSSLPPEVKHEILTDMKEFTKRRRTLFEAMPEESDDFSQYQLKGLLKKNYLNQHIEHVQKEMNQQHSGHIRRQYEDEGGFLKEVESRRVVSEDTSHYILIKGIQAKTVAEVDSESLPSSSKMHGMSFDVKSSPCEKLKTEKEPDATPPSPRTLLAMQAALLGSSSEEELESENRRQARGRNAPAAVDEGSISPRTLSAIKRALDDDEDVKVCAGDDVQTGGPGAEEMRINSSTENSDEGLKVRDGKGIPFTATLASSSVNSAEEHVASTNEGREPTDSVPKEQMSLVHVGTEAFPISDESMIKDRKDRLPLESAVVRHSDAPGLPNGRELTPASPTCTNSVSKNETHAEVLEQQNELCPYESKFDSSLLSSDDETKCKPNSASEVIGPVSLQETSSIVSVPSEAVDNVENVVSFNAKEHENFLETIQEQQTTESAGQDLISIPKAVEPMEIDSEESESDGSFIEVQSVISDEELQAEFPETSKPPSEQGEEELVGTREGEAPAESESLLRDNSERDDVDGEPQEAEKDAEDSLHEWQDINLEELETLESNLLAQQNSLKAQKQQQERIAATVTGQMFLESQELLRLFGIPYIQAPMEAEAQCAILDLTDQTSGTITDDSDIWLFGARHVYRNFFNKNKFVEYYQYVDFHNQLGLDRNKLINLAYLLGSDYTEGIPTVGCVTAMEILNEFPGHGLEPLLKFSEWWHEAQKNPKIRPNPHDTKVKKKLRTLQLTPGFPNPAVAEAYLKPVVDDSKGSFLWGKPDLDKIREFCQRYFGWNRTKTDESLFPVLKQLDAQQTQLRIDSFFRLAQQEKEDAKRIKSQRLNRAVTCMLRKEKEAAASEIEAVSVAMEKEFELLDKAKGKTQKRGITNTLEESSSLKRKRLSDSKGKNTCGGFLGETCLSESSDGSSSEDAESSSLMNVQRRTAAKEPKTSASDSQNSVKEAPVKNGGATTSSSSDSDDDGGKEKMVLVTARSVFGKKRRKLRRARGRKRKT
Method: as §1, §2, §3

B1: 10-nt bubble DNA (10T/10C) (structured_DNA)
DNA 1: GGGCAGACAACGTGGCGCTGTTTTTTTTTTGTGTCCTAGCACAGCGTATG
DNA 2: CATACGCTGTGCTAGGACACCCCCCCCCCCCAGCGCCACGTTGTCTGCCC
binding result [1]: binds | binding result (XPG): binds
